The text below walks through data of patent US11155602B2, “Polypeptides targeting HIV fusion” (priority 2015, dated 2021).

Some results are limits rather than exact numbers.

This assay has as its system NL-Rluc virus. Put plainly: Combinectin potency assay: antiviral EC50, NL-Rluc virus in MT-2 cells, luciferase readout. In kind it is cell-based, HIV-1. Particulars: Anti-N17 Adnectin, Table 3. The gist of the method:
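MT-2 cells infected with replication-competent NL-Rluc HIV (nef replaced by Renilla luciferase) at MOI 0.01 for 1 h, then added to threefold-diluted peptides (11 concentrations, triplicate). After 4–5 days, luciferase measured by Dual Luciferase; EC50 relative to no-peptide wells.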

B1: 122 (protein)
chain: MGHHHHHHGGVSDVPRDLEVVAATPTSLLISWQYKVHPYRYYRITYGETGGNSPVQEFTVPSVLSTAEISGLKPGVDYTITVYAVTRGVDSAPISINYRTPGG
modifications: Adnectin
Take B1: the EC50 stood at 6 nM.

B2: 123 (protein)
chain: MGVSDVPRDLEVVAATPTSLLISWEYKVHPYRYYRITYGETGGNSPVQEFTVPSVLSTATISGLKPGVDYTITVYAVTRGVDSAPISINYRTEIDKPSQHHHHHH
modifications: Adnectin
On to B2, for which the EC50 was determined as 28 nM.

B3: 201 (protein)
chain: MGHHHHHHGGSVSDVPRDLEVVAATPTSLLISWEYKVHPYRYYRITYGETGGNSPVQEFTVPSVLSTATISGLKPGVDYTITVYAVTYGDQSAPISINYRTEID
modifications: Adnectin
With B3, the EC50 is 20 nM.

B4: 210 (protein)
chain: MGHHHHHHGGSVSDVPRDLEVVAATPTSLLISWEYKVHPYRYYRITYGETGGNSPVQEFTVPSVLSTATISGLKPGVDYTITVYAVTYGDDSSPISINYRTEID
modifications: Adnectin
For B4, the half-maximal effective concentration (EC50) came to 143 nM.

B5: 202 (protein)
chain: MGHHHHHHGGSVSDVPRDLEVVAATPTSLLISWEYKVHPYRYYRITYGETGGNSPVQEFTVPSVLSTATISGLKPGVDYTITVYAVTYGDDSKPISINYRTEID
modifications: Adnectin
Turning to B5, the EC50 was over 1000 nM.

B6: 203 (protein)
chain: MGHHHHHHGGSVSDVPRDLEVVAATPTSLLISWEYKVHPYRYYRITYGETGGNSPVQEFTVPSVLSTATISGLKPGVDYTITVYAVTYGDDSGPISINYRTEID
modifications: Adnectin
In the case of B6, the EC50 was found to be 86 nM.

B7: 209 (protein)
chain: MGHHHHHHGGSVSDVPRDLEVVAATPTSLLISWEYKVHPYRYYRITYGETGGNSPVQEFTVPSVLSTATISGLKPGVDYTITVYAVTYGDDSTPISINYRTEID
modifications: Adnectin
On to B7, for which the EC50 stood at 20 nM.

B8: 206 (protein)
chain: MGHHHHHHGGSVSDVPRDLEVVAATPTSLLISWEYKVHPYRYYRITYGETGGNSPVQEFTVPSVLSTATISGLKPGVDYTITVYAVTYGDDSKPISINYRTEID
modifications: Adnectin
As to B8, the 50% effective concentration (EC50) was 237 nM.

B9: 212 (protein)
chain: MGHHHHHHGGSVSDVPRDLEVVAATPTSLLISWEYKVHPYRYYRITYGETGGNSPVQEFTVPSVLSTATISGLKPGVDYTITVYAVTHGDDSAPISINYRTEID
modifications: Adnectin
Consider B9, for which the EC50 was determined as 86 nM.

B10: 211 (protein)
chain: MGHHHHHHGGSVSDVPRDLEVVAATPTSLLISWEYKVHPYRYYRITYGETGGNSPVQEFTVPSVLSTATISGLKPGVDYTITVYAVTRGDDSAPISINYRTEID
modifications: Adnectin
B10: the EC50 came to 631 nM.

B11: 207 (protein)
chain: MGHHHHHHGGSVSDVPRDLEVVAATPTSLLISWEYKVHPYRYYRITYWETGGNSPVQEFTVPSVLSTATISGLKPGVDYTITVYAVTYGDDSAPISINYRTEID
modifications: Adnectin
As for B11, the EC50 is over 1000 nM.

B12: 205 (protein)
chain: MGHHHHHHGGSVSDVPRDLEVVAATPTSLLISWEYDVHPYRYYRITYGETGGNSPVQEFTVPSVLSTATISGLKPGVDYTITVYAVTYGDDSAPISINYRTEID
modifications: Adnectin
Take B12: the EC50 came to 86 nM.

B13: 208 (protein)
chain: MGHHHHHHGGSVSDVPRDLEVVAATPTSLLISWEYKVHPYRYYRITYGETGGNSPVQEFTVPSVLSTATISGLKPGVDYTITVYAVTYGDDSTPISINYRTEID
modifications: Adnectin
Take B13: the EC50 was over 1000 nM.
